This passage reports protein stability index results from the supplement of paper PMC10567573.

A short description of the data set: protein stability index of a GFP-peptide fusion (GPS, HEK-293T) (PSI 1-6); higher = more stable. The following applies: c terminus: a fixed tail appended.

± gives the standard deviation.
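Note: 24-mer peptide tiles fused after GFP, lentivirally expressed, FACS-sorted into six equal bins by GFP/DsRed ratio, decoded by Illumina sequencing, PSI is the read-weighted mean bin number.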

Turning to FQLPERGSRLCLYEDGTELTEDYF [DFFB], the protein stability index is, setting by setting: (treatment: DMSO) 3.71 ± 0.44; (treatment: MLN4924 1 uM, 8 h) 3.7 ± 0.47.

Take FREDGAYEFNPDFLEEAHEWNQKR [N4BP2L1]: the protein stability index reads like this: (treatment: DMSO) 4.71 ± 0.16; (treatment: MLN4924 1 uM, 8 h) 4.53 ± 0.26.

In the case of FRHLRLQYIISDLASARIIEQDAV [GMCL1], the protein stability index reads like this: (treatment: DMSO) 2.6 ± 0.73; (treatment: MLN4924 1 uM, 8 h) 2.44 ± 0.48.

As to FSDPSQSDPETKDFWLNMAALTEA [FCHO1], the protein stability index is, setting by setting: (treatment: DMSO) 3.4 ± 0.47; (treatment: MLN4924 1 uM, 8 h) 3.79 ± 0.37.

Sequence FSEQVFKVASSDLVNMGISVVSYT [FLOT1] showed a protein stability index (treatment: DMSO) of 2.66 ± 0.72 and a protein stability index (treatment: MLN4924 1 uM, 8 h) of 2.39 ± 0.44.

Take FSLVGKRAISTSVCVRAHESVVKS [COX4I1]: the protein stability index turned out to be 2.75 ± 0.14 (treatment: DMSO) and 2.94 ± 0.3 (treatment: MLN4924 1 uM, 8 h).

Regarding FVDSIRRQFEFSVDSFQIILDSLL [TENT5C], the protein stability index is, setting by setting: (treatment: DMSO) 2.33 ± 0.37; (treatment: MLN4924 1 uM, 8 h) 2.31 ± 0.14.

Take FVGYNPYSHLAYNNYRLGGNPSTN [SMARCE1]: the protein stability index is, setting by setting: (treatment: DMSO) 2.87 ± 0.21; (treatment: MLN4924 1 uM, 8 h) 2.54 ± 0.2.

With FVQRSGNYFVTMFDDYSATLPLTL [SLC6A17], the protein stability index by setting is: (treatment: DMSO) 2.65 ± 0.18; (treatment: MLN4924 1 uM, 8 h) 2.65 ± 0.55.

Consider FVRGDHRDNSPFDGPGGNLAHAFQ [MMP1], for which the protein stability index runs as follows: (treatment: DMSO) 2.34 ± 0.6; (treatment: MLN4924 1 uM, 8 h) 3.06 ± 0.29.

On to FWPAKVMQKEDNQVDVRFFGHHHQ [ZMYND11], for which the protein stability index (treatment: DMSO) was determined as 2.71 ± 0.52 and the protein stability index (treatment: MLN4924 1 uM, 8 h) worked out at 2.47 ± 0.18.

For FYMFAWTHVTLLITVTQSHLVIQN [CDS1], the protein stability index (treatment: DMSO) amounted to 3.01 ± 0.38 and the protein stability index (treatment: MLN4924 1 uM, 8 h) is 3 ± 0.3.

Where the note is “treatment: MLN4924 1 uM, 8 h”, GARARGVAMLGVFLVSAVAHEYIF [SOAT2] gave a protein stability index of 3.591 ± 0.02.

As to GARPPPTPPASPPPSVLISKNEVG [KMT2E], the protein stability index turned out to be 4.91 ± 0.12 (treatment: DMSO) and 5.08 ± 0.18 (treatment: MLN4924 1 uM, 8 h).

Sequence GATCMFVASKMKETIPLTAEKLCI [CCND1] yielded a protein stability index (treatment: DMSO) of 2.34 ± 0.34 and a protein stability index (treatment: MLN4924 1 uM, 8 h) of 1.99 ± 0.41.

Turning to GCFTLPRSEPIRPIDPAAWVSHTA [DVL3], the protein stability index is, setting by setting: (treatment: DMSO) 2.81 ± 0.25; (treatment: MLN4924 1 uM, 8 h) 3 ± 0.42.

As for GCSAVSEPASESVVGALPAEHQFS [TRAF3IP2], the protein stability index is, setting by setting: (treatment: DMSO) 4.38 ± 0.34; (treatment: MLN4924 1 uM, 8 h) 4.6 ± 0.27.

On to GDEISIKKKNTNKQEMGTYLRFIV [ZMYND11], for which the protein stability index reads like this: (treatment: DMSO) 2.12 ± 0.087; (treatment: MLN4924 1 uM, 8 h) 2.12 ± 0.24.

Regarding GDFDFDEVKFPNASDMFRRLRDAG [MYORG], the protein stability index is 3.98 ± 0.16 (treatment: DMSO) and 3.98 ± 0.2 (treatment: MLN4924 1 uM, 8 h).

As to GEDSSTSSSTPLEDEEPQEPNRLE [RTN2], the protein stability index by setting is: (treatment: DMSO) 5.56 ± 0.26; (treatment: MLN4924 1 uM, 8 h) 5.57 ± 0.25.

On to GELGSIGDHERAIDFSPYLEPLGA [CEBPB], for which the protein stability index turned out to be 4.21 ± 0.6 (treatment: DMSO) and 4.18 ± 0.32 (treatment: MLN4924 1 uM, 8 h).

In the case of GEQPQFWSKTQVLDWISYQVEKNK [ELF3], the protein stability index by setting is: (treatment: DMSO) 3.02 ± 0.13; (treatment: MLN4924 1 uM, 8 h) 3.29 ± 0.33.

In the case of GETGSGDQAGGEGKHITVFKTYIS [MYOZ1], the protein stability index by setting is: (treatment: DMSO) 3.97 ± 0.14; (treatment: MLN4924 1 uM, 8 h) 4.06 ± 0.15.

On to GFFSSAFQARLSGNNLHNASIPEH [POMT2], for which the protein stability index by setting is: (treatment: DMSO) 2.81 ± 0.44; (treatment: MLN4924 1 uM, 8 h) 3.07 ± 0.35.

Consider GGCYFGPDVTQQLLQKYNMQFLIR [PPEF2], for which the protein stability index was determined as 1.92 ± 0.29 (treatment: DMSO) and 2.2 ± 0.37 (treatment: MLN4924 1 uM, 8 h).

Take GGGGTQRLPRAIGMSLAKELIFSA [AUH]: the protein stability index was 2.54 ± 0.21 (treatment: DMSO) and 2.69 ± 0.58 (treatment: MLN4924 1 uM, 8 h).

As for GGNVECIKLLQSSGADFHKKDKCG [ANKRD44], the protein stability index (treatment: DMSO) is 4.48 ± 0.17 and the protein stability index (treatment: MLN4924 1 uM, 8 h) was 4.38 ± 0.1.

As to GGSGGGAGGAGGGVTEEQEGFADG [JUNB], the protein stability index (treatment: DMSO) is 5.5 ± 0.087 and the protein stability index (treatment: MLN4924 1 uM, 8 h) turned out to be 5.42 ± 0.43.

As to GHHAEKLPAGAGAPKAGLEEAPAV [TNFSF13B], the protein stability index runs as follows: (treatment: DMSO) 5.22 ± 0.3; (treatment: MLN4924 1 uM, 8 h) 5.27 ± 0.2.

GHSFCRPCLCLSWEEAQSPANCPA [TRIM43]: the protein stability index runs as follows: (treatment: DMSO) 3.47 ± 0.34; (treatment: MLN4924 1 uM, 8 h) 3.66 ± 0.29.

Consider GIVGGFTQMIREGGARSLWRGNGI [SLC25A25], for which the protein stability index runs as follows: (treatment: DMSO) 2.22 ± 0.093; (treatment: MLN4924 1 uM, 8 h) 2.27 ± 0.2.

With GKKFLLLSINRYERKKNLTLALEA [ALG2], the protein stability index is 2.35 ± 0.88 (treatment: DMSO) and 2.6 ± 0.39 (treatment: MLN4924 1 uM, 8 h).

Turning to GKKYNTMLGYKRHLALHAASSGDL [PLAGL1], the protein stability index worked out at 3.15 ± 0.12 (treatment: DMSO) and 3.28 ± 0.27 (treatment: MLN4924 1 uM, 8 h).

For GKLVLSSLPKRLCLVCGDVASGYH [ESRRA], the protein stability index stood at 2.38 ± 0.45 (treatment: DMSO) and 1.97 ± 0.33 (treatment: MLN4924 1 uM, 8 h).

On to GLDPCLLEDELDKSVQGTGLAFIA [SLC6A17], for which the protein stability index is, setting by setting: (treatment: DMSO) 3.28 ± 0.31; (treatment: MLN4924 1 uM, 8 h) 3.28 ± 0.44.

As for GLPGPEAARSGDAAANKLFHYIPG [PLEKHN1], the protein stability index runs as follows: (treatment: DMSO) 3.93 ± 0.38; (treatment: MLN4924 1 uM, 8 h) 4.15 ± 0.42.

For the sequence GLPGSFIKEVQKGGPADLAGLEDE [PDZK1], the protein stability index turned out to be 5.59 ± 0.14 (treatment: DMSO) and 5.37 ± 0.25 (treatment: MLN4924 1 uM, 8 h).
